Measurements taken from patent US20040121323, “Mrna binding motif” (published 2004).

What was measured:
[1] = target: T1, Grb14 SH2 domain (aa 426-540) (Homo sapiens, UniProt Q14449 Q14449:426-540); experiment: EMSA; settings: tags: GST; label: 32P
T1 sequence: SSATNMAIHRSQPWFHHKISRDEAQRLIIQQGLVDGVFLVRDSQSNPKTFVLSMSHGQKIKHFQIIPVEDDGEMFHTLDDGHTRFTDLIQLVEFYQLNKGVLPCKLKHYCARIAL

Grb7 PH-SH2 fragment = Grb7 PH-SH2 fragment (Homo sapiens, UniProt Q14451 Q14451:229-532); experiment: EMSA; settings: tags: GST; label: 32P
Chain of Grb7 PH-SH2 fragment (Q14451 229-532, one chain of several): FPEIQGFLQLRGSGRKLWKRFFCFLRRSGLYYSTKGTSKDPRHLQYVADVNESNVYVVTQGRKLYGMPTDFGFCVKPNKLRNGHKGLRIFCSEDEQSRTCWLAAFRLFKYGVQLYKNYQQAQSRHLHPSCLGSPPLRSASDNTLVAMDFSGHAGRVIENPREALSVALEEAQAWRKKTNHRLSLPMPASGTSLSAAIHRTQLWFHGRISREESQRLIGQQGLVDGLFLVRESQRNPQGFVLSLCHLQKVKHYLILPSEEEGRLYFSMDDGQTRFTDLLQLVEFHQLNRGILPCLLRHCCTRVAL

B1: erbB-2 3'-UTR U-rich probe (ssRNA)
RNA: UUUGUACAGAGUGCUUUUCUGUUUAGUUUUUACUUUUUUUGUUUUGUUUUUUUAAAGACGAAAUAAAGA
binding result [1]: binds
binding result (Grb7 PH-SH2 fragment): binds
